The source of these data is the supplement of paper PMC5998384.

The subject of data set [1] is HeLa Kyoto. Put plainly: solubility in G1/S (NP-40 vs SDS abundance) (log2 ratio); higher = more soluble. The conditions noted are these: cell cycle stage: G1/S.
Data set [2] relates to HeLa Kyoto. Put plainly: melting temperature (median over replicates), in situ; higher = more thermally stable.
For data set [3], the system named is HeLa Kyoto. Put plainly: solubility change mitosis vs G1/S (difference of NP-40 vs SDS log2 ratios) (log2 ratio difference); higher = more soluble in mitosis.
Data set [4] concerns HeLa Kyoto. Put plainly: thermal stability score vs G1/S (z-score of summed log2 fold changes over temperatures); higher = more thermally stable than in G1/S.
Where [5] appears, read: cell cycle stage: early G1 (4.5 h after nocodazole release).
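Throughout, for melting temperature (median over replicates), in situ: HeLa Kyoto cells synchronized by double thymidine or nocodazole block, proteins quantified by TMT10plex mass spectrometry, three independent biological replicates.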
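Throughout, for solubility change mitosis vs G1/S (difference of NP-40 vs SDS log2 ratios): synchronized HeLa Kyoto cells (double thymidine block for G1/S, nocodazole release for mitosis), protein amounts in NP-40 versus SDS lysates quantified by mass spectrometry, three biological replicates.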
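Throughout, for solubility in G1/S (NP-40 vs SDS abundance): HeLa Kyoto cells arrested at G1/S by double thymidine block, proteins quantified by TMT10plex mass spectrometry in mild NP-40 versus SDS extracts, three biological replicates.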
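Throughout, for thermal stability score vs G1/S (z-score of summed log2 fold changes over temperatures): synchronized HeLa Kyoto cells, proteins quantified by TMT10plex mass spectrometry, three biological replicates, mitosis taken 0.5 h after nocodazole release, G1/S directly after double thymidine block.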

“MSRSAAASGGPRRPERHLPPAPCGAPGPPETCRTEPDGAGTMNKLRQSLRRRKPAYVPEASRPHQWQADEDAVRKGTCSFPVRYLGHVEVEESRGMHVCEDAVKKLKAMGRKSVKSVLWVSADGLRVVDDKTKDLLVDQTIEKVSFCAPDRNLDKAFSYICRDGTTRRWICHCFLALKDSGERLSHAVGCAFAACLERKQRREKECGVTAAFDASRTSFAREGSFRLSGGGRPAEREAPDKKKAEAAAAPTVAPGPAQPGHVSPTPATTSPGEKGEAGTPVAAGTTAAAIPRRHAPLEQLVRQGSFRGFPALSQKNSPFKRQLSLRLNELPSTLQRRTDFQVKGTVPEMEPPGAGDSDSINALCTQISSSFASAGAPAPGPPPATTGTSAWGEPSVPPAAAFQPGHKRTPSEAERWLEEVSQVAKAQQQQQQQQQQQQQQQQQQQQAASVAPVPTMPPALQPFPAPVGPFDAAPAQVAVFLPPPHMQPPFVPAYPGLGYPPMPRVPVVGITPSQMVANAFCSAAQLQPQPATLLGKAGAFPPPAIPSAPGSQARPRPNGAPWPPEPAPAPAPELDPFEAQWAALEGKATVEKPSNPFSGDLQKTFEIEL [NUMBL]”: the “solubility in G1/S (log2)” value in data set [1] is 0.205. Also, the melting temperature was 51.9 °C in data set [2] (cell cycle stage: G1/S) and 52.3 °C in data set [2] (cell cycle stage: mitosis). Moreover, the “solubility change mitosis (log2)” value in data set [3] is -0.00185. Further, the thermal stability score is 2.8 in data set [4] (setting [5]) and 2.05 in data set [4] (cell cycle stage: mitosis).
With “MSRSPDAKEDPVECPLCMEPLEIDDINFFPCTCGYQICRFCWHRIRTDENGLCPACRKPYPEDPAVYKPLSQEELQRIKNEKKQKQNERKQKISENRKHLASVRVVQKNLVFVVGLSQRLADPEVLKRPEYFGKFGKIHKVVINNSTSYAGSQGPSASAYVTYIRSEDALRAIQCVNNVVVDGRTLKASLGTTKYCSYFLKNMQCPKPDCMYLHELGDEAASFTKEEMQAGKHQEYEQKLLQELYKLNPNFLQLSTGSVDKNKNKVTPLQRYDTPIDKPSDSLSIGNGDNSQQISNSDTPSPPPGLSKSNPVIPISSSNHSARSPFEGAVTESQSLFSDNFRHPNPIPSGLPPFPSSPQTSSDWPTAPEPQSLFTSETIPVSSSTDWQAAFGFGSSKQPEDDLGFDPFDVTRKALADLIEKELSVQDQPSLSPTSLQNSSSHTTTAKGPGSGFLHPAAATNANSLNSTFSVLPQRFPQFQQHRAVYNSFSFPGQAARYPWMAFPRNSIMHLNHTANPTSNSNFLDLNLPPQHNTGLGGIPVAGEEEVKVSTMPLSTSSHSLQQGQQPTSLHTTVA [CNOT4]”, the “solubility in G1/S (log2)” value in data set [1] amounted to 0.401. The melting temperature in data set [2] (cell cycle stage: G1/S) was 52.7 °C; in data set [2] (cell cycle stage: mitosis), 53 °C. The “solubility change mitosis (log2)” value in data set [3] amounted to 0.0198. In addition, the thermal stability score turned out to be 1.12 in data set [4] (setting [5]) and 0.182 in data set [4] (cell cycle stage: mitosis).
Turning to “MSRSVLQPSQQKLAEKLTILNDRGVGMLTRLYNIKKACGDPKAKPSYLIDKNLESAVKFIVRKFPAVETRNNNQQLAQLQKEKSEILKNLALYYFTFVDVMEFKDHVCELLNTIDVCQVFFDITVNFDLTKNYLDLIITYTTLMILLSRIEERKAIIGLYNYAHEMTHGASDREYPRLGQMIVDYENPLKKMMEEFVPHSKSLSDALISLQMVYPRRNLSADQWRNAQLLSLISAPSTMLNPAQSDTMPCEYLSLDAMEKWIIFGFILCHGILNTDATALNLWKLALQSSSCLSLFRDEVFHIHKAAEDLFVNIRGYNKRINDIRECKEAAVSHAGSMHRERRKFLRSALKELATVLSDQPGLLGPKALFVFMALSFARDEIIWLLRHADNMPKKSADDFIDKHIAELIFYMEELRAHVRKYGPVMQRYYVQYLSGFDAVVLNELVQNLSVCPEDESIIMSSFVNTMTSLSVKQVEDGEVFDFRGMRLDWFRLQAYTSVSKASLGLADHRELGKMMNTIIFHTKMVDSLVEMLVETSDLSIFCFYSRAFEKMFQQCLELPSQSRYSIAFPLLCTHFMSCTHELCPEERHHIGDRSLSLCNMFLDEMAKQARNLITDICTEQCTLSDQLLPKHCAKTISQAVNKKSKKQTGKKGEPEREKPGVESMRKNRLVVTNLDKLHTALSELCFSINYVPNMVVWEHTFTPREYLTSHLEIRFTKSIVGMTMYNQATQEIAKPSELLTSVRAYMTVLQSIENYVQIDITRVFNNVLLQQTQHLDSHGEPTITSLYTNWYLETLLRQVSNGHIAYFPAMKAFVNLPTENELTFNAEEYSDISEMRSLSELLGPYGMKFLSESLMWHISSQVAELKKLVVENVDVLTQMRTSFDKPDQMAALFKRLSSVDSVLKRMTIIGVILSFRSLAQEALRDVLSYHIPFLVSSIEDFKDHIPRETDMKVAMNVYELSSAAGLPCEIDPALVVALSSQKSENISPEEEYKIACLLMVFVAVSLPTLASNVMSQYSPAIEGHCNNIHCLAKAINQIAAALFTIHKGSIEDRLKEFLALASSSLLKIGQETDKTTTRNRESVYLLLDMIVQESPFLTMDLLESCFPYVLLRNAYHAVYKQSVTSSA [NCKAP1]”, in data set [1], the “solubility in G1/S (log2)” value was -0.214. Besides, the melting temperature amounted to 51.5 °C in data set [2] (cell cycle stage: G1/S) and 51.1 °C in data set [2] (cell cycle stage: mitosis). The “solubility change mitosis (log2)” value in data set [3] is -0.159. Besides, the thermal stability score in data set [4] (setting [5]) was -0.278; in data set [4] (cell cycle stage: mitosis), -0.186.
